Experimental findings from PMC7876548, “Methylation of the D2 dopamine receptor affects binding with the human regulatory proteins Par-4 and Calmodulin” (microPublication Biology, 2021) are described below.

Square brackets hold non-standard residues; d marks the D form. Ends that are not written are not given here. * marks the point of attachment. K(5-FAM) = lysine labeled with 5-carboxyfluorescein (5-FAM), C-terminal, O=C(NCCCC[C@H](N*)C(=O)O)c1ccc2c(c1)C(=O)OC21c2ccc(O)cc2Oc2cc(O)ccc21; Arg(Me2s) = CN=C(NC)NCCC[C@H](N)C(=O)O

The test addresses T1, human calmodulin (human, UniProt P0DP23 1-149).
T1 construct: Calmodulin, human; in pET-17b; Purification adapted from McCluskey et al. 2007; also called CaM; His-Calmodulin; source: Rosetta E. coli, purified (Ni-NTA, Phenyl-sepharose)
Briefly: fluorescence polarisation; anisotropy; fluorescently labelled D2 peptide at 0.025 µM final, Par-4 or CaM added from 10x stocks of 0-20 µM; 200 mM NaCl, 200 µM CaCl2, 50 mM Tris pH 7.5; room temperature, ten minutes; average of four trials. The following applies: both partners purified. For orientation: Fluorescence polarisation rises when a labelled molecule tumbles more slowly, as on binding a larger partner.

B1: unmethylated D2 peptide (amino acids 208-243 of the third intracellular loop of the human D2 receptor) (peptide)
peptide: VYIKIYIVLRRRRKRVNTKRSSRAFRAHLRAPLKGN-{K(5-FAM)}
notes: D2 dopamine receptor, human, amino acids 208-243 of the third intracellular loop; The C-terminal fluorophore is carried on an added lysine (K-5-FAM) after residue 243; source: synthetic peptide (21st Century Biochemicals); not shown: FLAG, N-terminal, kept
As to B1, the Kd (as a rule, the constant that tells how readily two partners part at equilibrium) is 57.5 nM.

B2: methylated D2 peptide (amino acids 208-243 of the human D2 receptor, symmetrically dimethylated at Arg 217 and Arg 219) (peptide)
peptide: VYIKIYIVL[Arg(Me2s)]R[Arg(Me2s)]RKRVNTKRSSRAFRAHLRAPLKGN-{K(5-FAM)}
notes: D2 dopamine receptor, human, amino acids 208-243 of the third intracellular loop; Same peptide as m1 but with symmetric dimethylarginine at 217 and 219; The C-terminal fluorophore is carried on an added lysine (K-5-FAM); source: synthetic peptide (21st Century Biochemicals); not shown: FLAG, N-terminal, kept
B2 registered a Kd of 136 nM.
